This series concerns the molecule itself.

Broadly, the Kd is the concentration at which binding is half-saturated.

B1: H46R/H48Q SOD1 with ebsulphur conjugated at Cys111 (enzyme)
chain: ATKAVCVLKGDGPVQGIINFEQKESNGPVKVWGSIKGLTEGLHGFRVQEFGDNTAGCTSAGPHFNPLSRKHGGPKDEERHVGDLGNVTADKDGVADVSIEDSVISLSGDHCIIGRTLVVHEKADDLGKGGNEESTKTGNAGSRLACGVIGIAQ
modifications: ebsulphur conjugated at Cys111
B1 returned a Kd of 676 nM.
